What is called Kd is the free concentration of one partner at which half of the binding sites on the other are occupied at equilibrium, for simple one-to-one binding.

Experiment [1] deals with T1, PD-L1-Fc receptor (human, UniProt Q9NZQ7 19-238, limits assumed).
T1 construct: also called human PD-L1 receptor; not shown: Fc
As to the kind of experiment: BLI (OctetRed 96), PD-L1-Fc in solution, 1:1 model.

The target in experiment [2] is T2, Human CD122/IL-2RB Protein (Fc Tag) (human, UniProt P14784 27-240).
T2 construct: No gamma chain is mentioned; also called human IL2βγ; human IL2βγ-Fc; not shown: Fc tag
T2 sequence (looked up): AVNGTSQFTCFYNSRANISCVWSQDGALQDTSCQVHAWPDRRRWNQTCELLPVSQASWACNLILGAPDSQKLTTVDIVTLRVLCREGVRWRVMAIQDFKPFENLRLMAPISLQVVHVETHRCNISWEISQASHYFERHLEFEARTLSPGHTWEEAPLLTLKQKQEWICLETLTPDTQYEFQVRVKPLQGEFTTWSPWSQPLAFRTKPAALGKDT
The experiment is described as follows: BLI (OctetRed 96), CD122/IL-2RB-Fc in solution; Response 0 and KD 0. The protocol:
(§1) The affinity constants for binding of IL15SA bispecific immunocytokines (hereinafter referred to as anti-PD1-Fab-CK_IL15Ra_Hc_IL15CH1FcknobLALA anti-PD-L1-Fab-CK_IL15Ra_Hc_IL15CH1FcknobLALA) to IL2βγ and human PD-1/PD-L1 receptors were measured using OctetRed 96 according to the ForteBio instructions. AR2G biosensors were pre-rehydrated for an hour in mQ. After the activation of biosensors, the bispecific immunocytokines at a concentration of 25 μg/ml in acetate buffer pH4 were non-specifically (by NH₂ groups) immobilized onto the biosensor. The sensors were then immersed into wells containing Human CD122/IL-2RB Protein (Fc Tag) or PD-1-Fc receptor or PD-L1-Fc receptor (1 and 0.5 μg/ml) in PBS buffer supplemented with 0.1% Tween-20 and 0.1% BSA to associate the bispecific super-agonist and the test receptor. The sensors were then immersed in a buffer solution for a subsequent dissociation step.
(§2) The instrumental data, after subtracting a reference signal, were analyzed using Octet Data Analysis software (Version 8.0) in accordance with the standard procedure and using 1:1 interaction model.

Experiment [3] has as its target T1, PD-L1-Fc receptor. The experiment is described as follows: BLI (OctetRed 96), PD-L1-Fc in solution; Response 0 and KD 0. The protocol: as §1, §2
For experiment [4], the target named is PD-1 on Jurkat NFAT-FLuc PD-1 cells (UniProt Q15116 25-288, limits assumed). The experiment is described as follows: cell-based or functional assay.
PD-1 on Jurkat NFAT-FLuc PD-1 cells, sequence (Q15116 25-288 limits assumed): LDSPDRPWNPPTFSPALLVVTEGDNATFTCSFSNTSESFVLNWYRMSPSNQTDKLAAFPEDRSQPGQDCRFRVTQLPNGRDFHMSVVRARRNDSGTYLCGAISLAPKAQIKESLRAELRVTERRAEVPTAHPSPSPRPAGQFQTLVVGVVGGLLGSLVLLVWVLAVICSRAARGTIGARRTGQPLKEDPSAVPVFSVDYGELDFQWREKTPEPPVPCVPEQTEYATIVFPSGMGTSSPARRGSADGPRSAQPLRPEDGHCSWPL
Another experiment addresses T3, PD-1-Fc receptor (human, UniProt Q15116 25-167, limits assumed).
T3 construct: also called human PD-1 receptor; not shown: Fc
The experiment is described as follows: BLI (OctetRed 96), PD-1-Fc in solution, 1:1 model. The protocol: as §1, §2

T1 sequence (Q9NZQ7 19-238 limits assumed): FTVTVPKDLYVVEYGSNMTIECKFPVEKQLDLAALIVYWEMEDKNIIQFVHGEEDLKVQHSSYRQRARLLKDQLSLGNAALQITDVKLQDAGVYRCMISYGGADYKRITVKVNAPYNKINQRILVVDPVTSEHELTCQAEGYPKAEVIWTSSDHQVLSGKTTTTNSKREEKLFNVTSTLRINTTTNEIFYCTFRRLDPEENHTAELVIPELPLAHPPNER
T3 sequence (Q15116 25-167 limits assumed): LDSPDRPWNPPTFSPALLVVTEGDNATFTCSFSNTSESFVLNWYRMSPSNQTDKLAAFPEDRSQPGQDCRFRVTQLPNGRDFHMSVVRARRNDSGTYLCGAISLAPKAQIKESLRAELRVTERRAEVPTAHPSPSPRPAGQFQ

B1: BCD-135 (antibody)
chain 1: not shown
chain 2: QTVVTQEPSLSVSPGGTVTLTCGLSSGTVTAINYPGWYQQTPGQAPRTLIYNTNTRHSGVPDRFSGSISGNKAALTITGAQAEDEADYYCALYMGNGGHMFGGGTKLTVLGQPKAAPSVTLFPPSSEELQANKATLVCLISDFYPGAVTVAWKADSSPVKAGVETTTPSKQSNNKYAASSYLSLTPEQWKSHRSYSCQVTHEGSTVEKTVAPTECS
For the molecule B1, the equilibrium dissociation constant (Kd) with PD-L1-Fc receptor [1] is under 1 pM.

B2: prolgolimab (antibody, V domains shown)
VH: QVQLVQSGGGLVQPGGSLRLSCAASGFTFSSYWMYWVRQVPGKGLEWVSAIDTGGGRTYYADSVKGRFAISRVNAKNTMYLQMNSLRAEDTAVYYCARDEGGGTGWGVLKDWPYGLDAWGQGTLVTVSS
VL: QPVLTQPLSVSVALGQTARITCGGNNIGSKNVHWYQQKPGQAPVLVIYRDSNRPSGIPERFSGSNSGNTATLTISRAQAGDEADYYCQVWDSSTAVFGTGTKLTVLQ
notes: also called Anti-PD-1 prologolimab; BCD100
B2: the binding result was “no binding (tested: 1 and 0.5 µg/ml)” in experiment [2]; “no binding (tested: 1 and 0.5 µg/ml)” with PD-L1-Fc receptor [3]. In experiment [4], the “EC50; NFAT-luciferase luminescence (RLU x 10^-3) in co-culture of Jurkat NFAT-FLuc PD-1 cells and Raji PDL1 cells with aCD3/aTAA1 at 1 ng/ml; relief of PD-1/PDL1 inhibition” value stood at 27 ng/mL. This molecule had a dissociation constant (Kd) with PD-1-Fc receptor of 0.186 nM.

The values above are taken from patent publication US20230011234A1 (JOINT STOCK COMPANY BIOCAD, published 2023).
